Where “and” joins values, the source holds several entries; their conditions need not be identical. Identical values can stand only once.
Key:
[1] = biological target: RcpA, endogenous in P. aeruginosa PAO1 (P. aeruginosa PAO1 (endogenous)) (UniProt Q9HW96); experiment: pull-down; P. aeruginosa PAO1 with chromosomal tadD_(strep), native expression levels; membranes extracted with DDM; Strep-Tactin Sepharose; eluate seen by anti-strep Western blot and negative stain EM 2D class averages
[2] = biological target: TadD, native sequence, tag not given (P. aeruginosa PAO1); experiment: pull-down; cysteine mutants of RcpA and TadD co-expressed in E. coli, single strep tag pulldown; RcpA-TadD particles counted on five negative stain EM micrographs per mutant (Laplacian-of-Gaussian blob detection), SDS-PAGE
[3] = biological target: RcpA_(strep), C-terminally strep-tagged RcpA (P. aeruginosa PAO1) (UniProt Q9HW96); experiment: cryo-EM structure; RcpA_(strep)-TadD_(FLAG) complex co-expressed in E. coli, double pulldown (StrepTrap, ANTI-FLAG M2), 0.06% DDM; graphene oxide support and tilted collection; C13 map at 2.7 Å, focussed TadD map; on holey carbon grids TadD was stripped off
[4] = biological target: TadD D139C (P. aeruginosa PAO1); experiment: pull-down; cysteine mutants of RcpA and TadD co-expressed in E. coli, single strep tag pulldown; RcpA-TadD particles counted on five negative stain EM micrographs per mutant (Laplacian-of-Gaussian blob detection), SDS-PAGE
[5] = biological target: _(strep)RcpA, N-terminally strep-tagged RcpA (P. aeruginosa PAO1) (UniProt Q9HW96); experiment: pull-down; RcpA constructs with the strep tag at the N-terminus co-expressed with TadD in E. coli; single strep tag pulldown; SDS-PAGE, Western blot and negative stain EM 2D class averages

Q: Which stoichiometry N [1] does the source give for “RcpA, endogenous in P. aeruginosa PAO1 (from UniProt Q9HW96 1-416) (natural protein)” here?
A: The stoichiometry N was 13 and 14.

Q: With “RcpA S415C (from UniProt Q9HW96 1-416) (natural protein)” as the substance, how does the RcpA-TadD complex relative to native levels [2] read?
A: Its RcpA-TadD complex relative to native levels is 10%.

Q: And the RcpA-TadD particles relative to native levels [2]?
A: The RcpA-TadD particles relative to native levels was 14%.

Q: With “RcpA L414C (from UniProt Q9HW96 1-416) (natural protein)” as the substance, how does the RcpA-TadD particles relative to native levels [2] read?
A: The RcpA-TadD particles relative to native levels was 9%.

Q: With “RcpA_(strep), C-terminally strep-tagged RcpA (from UniProt Q9HW96 1-416) (natural protein)” as the substance, how does the stoichiometry N [3] read?
A: The stoichiometry N was 13 and 14.

Q: How did the RcpA-TadD particles relative to native TadD [4] turn out when “RcpA, native sequence, in the cysteine cross-linking assay (tag not stated) (from UniProt Q9HW96 1-416) (natural protein)” was run?
A: The RcpA-TadD particles relative to native TadD was 2%.

Q: How did the stoichiometry N [5] turn out when “_(strep)RcpA, N-terminally strep-tagged RcpA (from UniProt Q9HW96 1-416) (natural protein)” was run?
A: The stoichiometry N was 13 and 14.

Reference: article PMC10499894
